Measurements taken from publication PMC4634304, “Evidence-Based Structural Model of the Staphylococcal Repressor Protein: Separation of Functions into Different Domains”.

What was measured:
[1] = target: Φ11 dUTPase, dUTPase enzyme from the Φ11 Staphylococcal phage (Staphylococcal phage Φ11); assay: inhibition of enzyme activity (steady-state dUTPase kinetics); 20 nM Φ11 dUTPase, 1 mM HEPES-HCl pH 7.5, 5 mM MgCl2, 150 mM KCl, phenol red, 293 K; the two proteins preincubated 5 min; quadratic binding equation fitted; apparent Ki
[2] = target: Φ11 dUTPase, dUTPase enzyme from the Φ11 Staphylococcal phage (Staphylococcal phage Φ11)
[3] = target: Φ11 dUTPase, dUTPase enzyme from the Φ11 Staphylococcal phage (Staphylococcal phage Φ11); remark: listed apart in the source
Stl-CTD = Stl-CTD (Staphylococcus aureus pathogenicity …, UniProt Q9F0J8 85-267); assay: EMSA; no shift at 2-30 uM Stl-CTD (monomer); conditions: protein: recombinant; tags: N-terminal GST removed by thrombin (pGEX-4T-1); label: none (GelRed stain); blunt
[4] = target: Stl (SaPIbov1 repressor), wild type (Staphylococcus aureus pathogenicity …, UniProt Q9F0J8); assay: EMSA; shift at 1 uM Stl (monomer); conditions: protein: recombinant; tags: N-terminal GST removed by thrombin (pGEX-4T-1); chain copies: 2; label: none (GelRed stain); blunt

Question: For “Stl-CTD, carboxy-terminal domain of the SaPIbov1 pathogenicity island repressor Stl (domain or fragment)”, which Ki [1] is on record?
Answer: The Ki was 1.5 nM.

Question: And the maximum inhibition of Φ11 dUTPase activity at saturating Stl-CTD concentration [2]?
Answer: The maximum inhibition of Φ11 dUTPase activity at saturating Stl-CTD concentration was 40%.

Question: What does the source list for “Stl-Q40A,N41A double mutant of the SaPIbov1 repressor Stl (natural protein)”?
Answer: Ki [1]: 1.4 nM; maximal inhibition of Φ11 dUTPase activity by Stl-AA [3]: > 90%

B1: 57mer Stl-binding dsDNA (dsDNA)
DNA 1: GCTCATATTATTCCTCTCCTACCATTTTATCTCTAATTGAGATATTTATATTCAGAT
DNA 2: ATCTGAATATAAATATCTCAATTAGAGATAAAATGGTAGGAGAGGAATAATATGAGC
Question: Does B1 bind (Stl-CTD)?
Answer: Result: no binding

Question: Does B1 bind [4]?
Answer: Result: binds
